Assay in all cases: detection of glycoproteins by ELISA with biotin-labeled lectin
Type in all cases: binding

The target in assay [1] is Blood serum albumin (bovine) (Bos taurus, UniProt P02769). Particulars: (0) Blood serum albumin (bovine), No sugar chain; thyroglobulin value = 100%. The procedure:
(§1) PTL of Example 1, SRL of Example 2, AAL of Comparison Example 1, AOL of Comparison Example 2, and LCA of Comparison Example 3 that were biotin-labeled were used to the detection of glycoproteins by the enzyme-linked immunosorbent assay (ELISA).
(§2) The glycoprotein and albumin as protein not including a sugar chain as a control were dissolved in 0.1 M carbonic acid buffer solution (pH 9.5) at 1 mg/ml. Then, the resultant solution was added to a microtiter plate (Nunc 439454) and was incubated at 4 degrees C. overnight. Then, the resultant solution was cleaned by 0.05% Tween/PBS three times. Thereafter, 1% BSA/PBS was added to wells and the solution was incubated at 37 degrees C. for one hour. Then, after the solution was cleaned by 0.05% Tween/PBS three times, biotin labeled-lectin appropriately diluted by 1% BSA/0.05% Tween/PBS was added to the wells and the solution was incubated at 37 degrees C. for one hour. After the solution was cleaned by 0.05% Tween/PBS three times, HRP labeled streptavidin solution diluted by 1% BSA/0.05% Tween/PBS was added to wells and the solution was incubated at 37 degrees C. for 30 minutes. After the solution was cleaned by 0.05% Tween/PBS three times, TMB Peroxidase substrate system (KPL) was added and the resultant solution was incubated at a room temperature for 10 minutes while light was being blocked.
(§3) The reaction was stopped by 1 M phosphoric acid. Then, a microplate reader (MPR-A4i, TOSOH CORPORATION) was used to measure the absorbance at 450 nm. Based on this value, reaction value ([absorbance at 450 nm of a well for which glycoprotein was solid-phased to the plate and reacted]−[absorbance at 450 nm of a well for which glycoprotein was not solid-phased to the plate and reacted] was calculated. Next, for each lectin, the interaction strength (relative value) to each glycoprotein was calculated based on an assumption that the glycoprotein (thyroglobulin) value was 100%. The calculation result is shown in Table 9 and FIG. 19 to FIG. 23.

Assay [2] deals with Immune-globulin G (human). Particulars: (3) Immune-globulin G (human), N-linked glycan having α1→6 L-fucose; thyroglobulin value = 100%. The procedure:
as §1, §2, §3

Another assay has as its target T1, Invertase (yeast) (Saccharomyces cerevisiae, UniProt P00724).
T1 sequence (P00724 20-532): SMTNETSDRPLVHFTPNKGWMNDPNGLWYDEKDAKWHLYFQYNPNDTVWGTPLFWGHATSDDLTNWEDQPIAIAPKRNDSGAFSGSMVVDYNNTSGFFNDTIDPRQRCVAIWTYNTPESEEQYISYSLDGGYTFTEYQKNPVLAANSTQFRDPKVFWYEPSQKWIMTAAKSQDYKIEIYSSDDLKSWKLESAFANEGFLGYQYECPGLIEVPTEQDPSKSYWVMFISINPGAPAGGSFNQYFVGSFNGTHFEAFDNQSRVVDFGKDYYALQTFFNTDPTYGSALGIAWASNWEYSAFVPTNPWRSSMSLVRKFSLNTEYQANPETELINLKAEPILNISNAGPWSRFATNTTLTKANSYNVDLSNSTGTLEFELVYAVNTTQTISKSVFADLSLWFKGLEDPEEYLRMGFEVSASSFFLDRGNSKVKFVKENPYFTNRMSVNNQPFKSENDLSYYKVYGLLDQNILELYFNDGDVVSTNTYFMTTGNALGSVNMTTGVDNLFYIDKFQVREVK
Particulars: (6) Invertase (yeast), High mannose-type glycan; thyroglobulin value = 100%. The procedure:
as §1, §2, §3

The next assay has as its target Lactoferrin (human) (Homo sapiens, UniProt P02788). Particulars: (2) Lactoferrin (human), N-linked glycan chain having α1→6 L-fucose; thyroglobulin value = 100%. The protocol:
as §1, §2, §3

The next assay has as its system Mucin (bovine). Particulars: (8) Mucin (bovine), O-linked glycan including L-fucose; thyroglobulin value = 100%. The procedure:
as §1, §2, §3

The test system of another assay is Mucin (pig). The note with it: (7) Mucin (pig), O-linked glycan including L-fucose; thyroglobulin value = 100%. The procedure: as §1, §2, §3
A further assay deals with Thyroglobulin (pig) (Sus scrofa, UniProt F1RRV3). The note with it: (1) Thyroglobulin (pig), N-linked glycan having α1→6 L-fucose; thyroglobulin value = 100%. The procedure:
as §1, §2, §3

Another assay has as its target Transferrin (human) (Homo sapiens, UniProt P02787). Particulars: (4) Transferrin (human), N-linked glycan not including α1→6 L-fucose; thyroglobulin value = 100%. The protocol:
as §1, §2, §3

Assay [3] concerns α1-acidic glycoprotein (human). The note with it: (5) α1-acidic glycoprotein (human), N-linked glycan having α1→3 L-fucose; thyroglobulin value = 100%. The procedure:
as §1, §2, §3

Transferrin (human), sequence (P02787 20-698): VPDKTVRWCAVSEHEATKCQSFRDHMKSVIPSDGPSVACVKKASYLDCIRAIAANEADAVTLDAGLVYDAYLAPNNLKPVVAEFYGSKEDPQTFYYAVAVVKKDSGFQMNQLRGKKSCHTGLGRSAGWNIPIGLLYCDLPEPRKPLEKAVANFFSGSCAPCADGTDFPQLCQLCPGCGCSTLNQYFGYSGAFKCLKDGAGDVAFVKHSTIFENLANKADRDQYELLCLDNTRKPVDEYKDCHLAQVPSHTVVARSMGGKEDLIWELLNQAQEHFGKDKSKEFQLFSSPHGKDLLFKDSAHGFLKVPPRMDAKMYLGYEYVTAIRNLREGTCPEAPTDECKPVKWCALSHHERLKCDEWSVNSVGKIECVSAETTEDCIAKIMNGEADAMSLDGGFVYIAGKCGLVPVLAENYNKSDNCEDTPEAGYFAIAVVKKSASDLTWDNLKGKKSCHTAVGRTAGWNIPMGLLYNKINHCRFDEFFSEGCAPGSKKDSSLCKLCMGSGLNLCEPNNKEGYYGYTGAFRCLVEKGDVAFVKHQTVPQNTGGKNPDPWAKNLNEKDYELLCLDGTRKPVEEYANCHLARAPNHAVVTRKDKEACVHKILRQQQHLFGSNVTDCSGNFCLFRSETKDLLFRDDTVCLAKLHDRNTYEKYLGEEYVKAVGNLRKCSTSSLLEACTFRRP
Blood serum albumin (bovine), sequence (P02769 25-607): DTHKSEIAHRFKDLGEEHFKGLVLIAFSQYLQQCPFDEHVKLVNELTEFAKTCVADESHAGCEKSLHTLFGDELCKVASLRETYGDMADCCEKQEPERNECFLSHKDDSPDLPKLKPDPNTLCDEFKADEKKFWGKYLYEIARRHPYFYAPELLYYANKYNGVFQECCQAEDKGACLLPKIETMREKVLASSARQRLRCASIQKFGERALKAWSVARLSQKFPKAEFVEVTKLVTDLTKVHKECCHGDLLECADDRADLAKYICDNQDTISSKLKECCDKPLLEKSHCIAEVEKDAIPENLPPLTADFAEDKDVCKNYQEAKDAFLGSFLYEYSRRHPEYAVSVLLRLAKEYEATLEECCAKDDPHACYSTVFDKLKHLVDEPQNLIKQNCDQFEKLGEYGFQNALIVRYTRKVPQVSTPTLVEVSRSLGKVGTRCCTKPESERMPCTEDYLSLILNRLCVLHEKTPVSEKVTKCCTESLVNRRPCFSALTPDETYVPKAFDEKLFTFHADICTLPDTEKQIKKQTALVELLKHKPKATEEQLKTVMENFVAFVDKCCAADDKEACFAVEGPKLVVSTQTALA
Thyroglobulin (pig), sequence (F1RRV3 20-2692): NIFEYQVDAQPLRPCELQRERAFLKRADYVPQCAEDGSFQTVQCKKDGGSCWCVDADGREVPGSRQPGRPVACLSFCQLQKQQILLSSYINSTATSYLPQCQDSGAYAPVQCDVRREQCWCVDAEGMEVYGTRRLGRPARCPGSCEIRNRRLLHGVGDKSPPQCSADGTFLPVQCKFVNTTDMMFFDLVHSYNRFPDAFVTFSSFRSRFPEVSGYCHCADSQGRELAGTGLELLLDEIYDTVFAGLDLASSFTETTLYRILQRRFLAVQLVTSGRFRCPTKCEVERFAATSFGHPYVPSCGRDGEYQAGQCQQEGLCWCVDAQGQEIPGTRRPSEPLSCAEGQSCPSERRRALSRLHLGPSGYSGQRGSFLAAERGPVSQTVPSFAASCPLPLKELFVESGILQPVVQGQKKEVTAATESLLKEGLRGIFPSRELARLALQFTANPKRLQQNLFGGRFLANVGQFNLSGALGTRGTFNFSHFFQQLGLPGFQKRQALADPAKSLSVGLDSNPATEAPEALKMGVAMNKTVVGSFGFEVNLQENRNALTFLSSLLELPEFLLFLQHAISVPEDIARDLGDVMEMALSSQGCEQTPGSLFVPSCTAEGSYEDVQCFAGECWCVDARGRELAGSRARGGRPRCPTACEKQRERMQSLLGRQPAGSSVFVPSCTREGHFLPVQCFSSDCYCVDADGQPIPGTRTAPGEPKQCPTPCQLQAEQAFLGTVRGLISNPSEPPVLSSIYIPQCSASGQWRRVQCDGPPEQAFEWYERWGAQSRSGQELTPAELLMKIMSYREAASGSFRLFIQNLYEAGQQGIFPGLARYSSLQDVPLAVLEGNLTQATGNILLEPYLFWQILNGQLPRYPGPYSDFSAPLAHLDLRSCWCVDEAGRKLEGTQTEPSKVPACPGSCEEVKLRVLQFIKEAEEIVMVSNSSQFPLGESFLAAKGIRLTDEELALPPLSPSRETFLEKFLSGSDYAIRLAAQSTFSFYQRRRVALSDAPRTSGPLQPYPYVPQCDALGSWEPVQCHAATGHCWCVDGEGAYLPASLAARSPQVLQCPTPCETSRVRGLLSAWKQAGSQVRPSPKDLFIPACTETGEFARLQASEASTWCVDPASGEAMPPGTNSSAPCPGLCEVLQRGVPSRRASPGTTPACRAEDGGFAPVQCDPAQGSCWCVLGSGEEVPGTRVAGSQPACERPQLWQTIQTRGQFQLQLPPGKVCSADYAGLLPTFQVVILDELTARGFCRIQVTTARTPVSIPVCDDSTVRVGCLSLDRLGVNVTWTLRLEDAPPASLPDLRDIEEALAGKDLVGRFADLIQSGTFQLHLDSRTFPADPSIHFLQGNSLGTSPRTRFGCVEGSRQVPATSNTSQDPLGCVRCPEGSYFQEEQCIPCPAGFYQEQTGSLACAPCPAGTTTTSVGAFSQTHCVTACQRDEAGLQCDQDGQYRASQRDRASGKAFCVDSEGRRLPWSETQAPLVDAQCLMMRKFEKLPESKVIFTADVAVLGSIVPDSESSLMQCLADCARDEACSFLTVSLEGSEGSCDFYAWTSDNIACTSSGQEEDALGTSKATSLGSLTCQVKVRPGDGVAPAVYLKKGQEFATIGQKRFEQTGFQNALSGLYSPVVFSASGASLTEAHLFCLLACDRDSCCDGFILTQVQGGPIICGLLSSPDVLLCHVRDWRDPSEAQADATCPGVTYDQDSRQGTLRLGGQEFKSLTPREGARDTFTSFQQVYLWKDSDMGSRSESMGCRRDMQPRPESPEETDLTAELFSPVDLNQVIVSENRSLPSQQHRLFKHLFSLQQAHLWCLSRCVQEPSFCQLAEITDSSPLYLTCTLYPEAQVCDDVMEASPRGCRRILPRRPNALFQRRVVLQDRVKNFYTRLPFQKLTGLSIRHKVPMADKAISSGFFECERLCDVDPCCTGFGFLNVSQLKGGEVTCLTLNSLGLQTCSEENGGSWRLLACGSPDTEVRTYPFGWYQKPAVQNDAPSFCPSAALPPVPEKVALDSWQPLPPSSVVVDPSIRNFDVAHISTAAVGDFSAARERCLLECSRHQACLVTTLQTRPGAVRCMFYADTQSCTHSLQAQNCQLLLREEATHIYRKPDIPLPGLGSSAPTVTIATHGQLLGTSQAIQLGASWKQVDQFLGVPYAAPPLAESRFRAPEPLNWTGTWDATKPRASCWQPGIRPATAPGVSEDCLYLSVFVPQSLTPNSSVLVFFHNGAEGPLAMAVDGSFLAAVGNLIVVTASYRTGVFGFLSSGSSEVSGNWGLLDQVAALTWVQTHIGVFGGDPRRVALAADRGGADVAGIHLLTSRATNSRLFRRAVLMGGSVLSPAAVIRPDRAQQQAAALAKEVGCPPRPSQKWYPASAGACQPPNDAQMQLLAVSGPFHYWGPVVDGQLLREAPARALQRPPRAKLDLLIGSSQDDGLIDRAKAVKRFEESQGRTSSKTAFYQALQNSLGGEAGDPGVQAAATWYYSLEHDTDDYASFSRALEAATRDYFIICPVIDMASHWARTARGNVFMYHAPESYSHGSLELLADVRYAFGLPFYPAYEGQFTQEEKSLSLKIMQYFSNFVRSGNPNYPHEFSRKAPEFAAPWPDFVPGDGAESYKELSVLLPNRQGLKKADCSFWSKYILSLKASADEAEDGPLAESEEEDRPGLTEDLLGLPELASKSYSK
Lactoferrin (human), sequence (P02788 20-710): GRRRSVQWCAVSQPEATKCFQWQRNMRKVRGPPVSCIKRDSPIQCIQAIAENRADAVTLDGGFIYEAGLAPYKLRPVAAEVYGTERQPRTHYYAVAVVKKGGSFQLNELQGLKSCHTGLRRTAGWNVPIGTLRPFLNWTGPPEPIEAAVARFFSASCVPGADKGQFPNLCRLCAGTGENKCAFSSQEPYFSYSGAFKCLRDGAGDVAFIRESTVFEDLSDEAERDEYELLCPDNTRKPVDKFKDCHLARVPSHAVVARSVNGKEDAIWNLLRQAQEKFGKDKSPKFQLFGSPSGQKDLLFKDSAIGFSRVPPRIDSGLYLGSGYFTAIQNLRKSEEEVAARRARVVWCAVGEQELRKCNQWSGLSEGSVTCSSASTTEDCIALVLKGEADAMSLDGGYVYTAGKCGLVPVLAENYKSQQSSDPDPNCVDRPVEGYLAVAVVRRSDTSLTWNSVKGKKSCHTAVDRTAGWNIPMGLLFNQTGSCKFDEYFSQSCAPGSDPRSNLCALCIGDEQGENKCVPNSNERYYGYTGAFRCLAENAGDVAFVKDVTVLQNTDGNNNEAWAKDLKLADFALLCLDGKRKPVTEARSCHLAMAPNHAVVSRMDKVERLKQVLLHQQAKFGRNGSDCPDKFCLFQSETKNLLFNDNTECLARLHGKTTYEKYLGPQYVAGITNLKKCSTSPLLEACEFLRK

For “Stropharia rugosoannulata lectin [SRL, novel L-fucose α1→6 specific lectin purified from the mushroom Stropharia rugosoannulata]”, the “interaction strength (relative value) by ELISA” value in [1] is “X (Relative values of 10 or less)”; in assay [2], “◯ (Relative values of 80 to 50)”; in the assay with Invertase (yeast), “X (Relative values of 10 or less)”; with Lactoferrin (human), “◯ (Relative values of 80 to 50)”; with Mucin (bovine), “X (Relative values of 10 or less)”; in the assay with Mucin (pig), “X (Relative values of 10 or less)”. Also, the “interaction strength (relative value) by ELISA” value is “⊚ (Relative values of 120 to 80)” in the assay with Thyroglobulin (pig), “X (Relative values of 10 or less)” with Transferrin (human) and “X (Relative values of 10 or less)” in [3].
With “Aspergillus oryzae lectin [AOL, reference compound]”, the “interaction strength (relative value) by ELISA” value is “X (Relative values of 10 or less)” in assay [1]; “Δ (Relative values of 50 to 10)” in assay [2]; “X (Relative values of 10 or less)” on Invertase (yeast); “◯ (Relative values of 80 to 50)” on Lactoferrin (human); “⊚ (Relative values of 120 to 80)” in the assay with Mucin (bovine); “⊚ (Relative values of 120 to 80)” with Mucin (pig). Besides, the “interaction strength (relative value) by ELISA” value on Thyroglobulin (pig) is on record as “⊚ (Relative values of 120 to 80)”; on Transferrin (human), “X (Relative values of 10 or less)”; in assay [3] it was “Δ (Relative values of 50 to 10)”.
For the molecule “Pholiota terrestris lectin [PTL, novel L-fucose α1→6 specific lectin purified from the mushroom Pholiota terrestris]”, the “interaction strength (relative value) by ELISA” value in assay [1] is “X (Relative values of 10 or less)”; in assay [2], “⊚ (Relative values of 120 to 80)”; with Invertase (yeast) it was “X (Relative values of 10 or less)”; with Lactoferrin (human), “⊚ (Relative values of 120 to 80)”; in the assay on Mucin (bovine) it was “X (Relative values of 10 or less)”; in the assay on Mucin (pig) it was “X (Relative values of 10 or less)”. Further, the “interaction strength (relative value) by ELISA” value with Thyroglobulin (pig) is “⊚ (Relative values of 120 to 80)”; with Transferrin (human) it was “X (Relative values of 10 or less)”; in assay [3] it was “X (Relative values of 10 or less)”.

B1: Lens culinaris agglutinin (protein)
chain 1: TETTSFSITKFSPDQKNLIFQGDGYTTKGKLTLTKAVKSTVGRALYSTPIHIWDRDTGNVANFVTSFTFVIDAPSSYNVADEFTFFIAPVDTKPQTGGGYLGVFNSKEYDKTSQTVAVEFDTFYNAAWDPSNKERHIGIDVNSIKSVNTKSWNLQNGERANVVIAFNAATNVLTVTLTYP
chain 2: VTSYTLNEVVPLKDVVPEWVRIGFSATTGAEFAAHEVHSWSFHSELGGTSSS
As for B1, the “interaction strength (relative value) by ELISA” value is reported as “X (Relative values of 10 or less)” in [1]; “◯ (Relative values of 80 to 50)” in assay [2]; “X (Relative values of 10 or less)” with Invertase (yeast); “◯ (Relative values of 80 to 50)” with Lactoferrin (human); “X (Relative values of 10 or less)” in the assay on Mucin (bovine); “X (Relative values of 10 or less)” with Mucin (pig). In addition, the “interaction strength (relative value) by ELISA” value with Thyroglobulin (pig) is on record as “⊚ (Relative values of 120 to 80)”; with Transferrin (human), “X (Relative values of 10 or less)”; in assay [3] it was “X (Relative values of 10 or less)”.

B2: Aleuria aurantia lectin (protein)
chain: PTEFLYTSKIAAISWAATGGRQQRVYFQDLNGKIREAQRGGDNPWTGGSSQNVIGEAKLFSPLAAVTWKSAQGIQIRVYCVNKDNILSEFVYDGSKWITGQLGSVGVKVGSNSKLAALQWGGSESAPPNIRVYYQKSNGSGSSIHEYVWSGKWTAGASFGSTVPGTGIGATAIGPGRLRIYYQATDNKIREHCWDSNSWYVGGFSASASAGVSIAAISWGSTPNIRVYWQKGREELYEAAYGGSWNTPGQIKDASRPTPSLPDTFIAANSSGNIDISVFFQASGVSLQQWQWISGKGWSIGAVVPTGTPAGW
On to B2, for which the “interaction strength (relative value) by ELISA” value is given as “X (Relative values of 10 or less)” in assay [1]; “Δ (Relative values of 50 to 10)” in [2]; “X (Relative values of 10 or less)” with Invertase (yeast); “◯ (Relative values of 80 to 50)” in the assay with Lactoferrin (human); “⊚ (Relative values of 120 to 80)” with Mucin (bovine); “⊚ (Relative values of 120 to 80)” in the assay on Mucin (pig). Besides, the “interaction strength (relative value) by ELISA” value is given as “⊚ (Relative values of 120 to 80)” with Thyroglobulin (pig), “X (Relative values of 10 or less)” with Transferrin (human) and “Δ (Relative values of 50 to 10)” in assay [3].

For the origin of these results see patent US8461305B2, “L-fucose α1→6 specific lectin” (J-Oil Mills, Inc., priority 2008, dated 2013).
